Test results reported in paper PMC11272584 (Nature Metabolism, 2024).

T1: GIPR E463Q (Homo sapiens, UniProt P48546, E463Q)
T1 construct: host or cells: HEK293
T1 sequence (P48546 22-466 E463Q): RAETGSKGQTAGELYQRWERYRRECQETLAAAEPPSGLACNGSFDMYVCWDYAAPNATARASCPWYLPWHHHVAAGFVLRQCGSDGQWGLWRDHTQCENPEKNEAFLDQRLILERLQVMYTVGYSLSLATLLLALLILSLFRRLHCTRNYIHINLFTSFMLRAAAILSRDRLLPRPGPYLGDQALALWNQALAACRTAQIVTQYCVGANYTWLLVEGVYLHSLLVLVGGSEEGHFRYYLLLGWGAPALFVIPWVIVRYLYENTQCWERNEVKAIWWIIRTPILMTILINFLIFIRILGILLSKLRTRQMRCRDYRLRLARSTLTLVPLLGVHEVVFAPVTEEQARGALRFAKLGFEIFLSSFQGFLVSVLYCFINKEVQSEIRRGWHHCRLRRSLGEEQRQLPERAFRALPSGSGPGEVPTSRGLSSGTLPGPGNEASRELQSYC

T2: GIPR T25R (Homo sapiens, UniProt P48546, T25R)
T2 construct: host or cells: HEK293
T2 sequence (P48546 22-466 T25R): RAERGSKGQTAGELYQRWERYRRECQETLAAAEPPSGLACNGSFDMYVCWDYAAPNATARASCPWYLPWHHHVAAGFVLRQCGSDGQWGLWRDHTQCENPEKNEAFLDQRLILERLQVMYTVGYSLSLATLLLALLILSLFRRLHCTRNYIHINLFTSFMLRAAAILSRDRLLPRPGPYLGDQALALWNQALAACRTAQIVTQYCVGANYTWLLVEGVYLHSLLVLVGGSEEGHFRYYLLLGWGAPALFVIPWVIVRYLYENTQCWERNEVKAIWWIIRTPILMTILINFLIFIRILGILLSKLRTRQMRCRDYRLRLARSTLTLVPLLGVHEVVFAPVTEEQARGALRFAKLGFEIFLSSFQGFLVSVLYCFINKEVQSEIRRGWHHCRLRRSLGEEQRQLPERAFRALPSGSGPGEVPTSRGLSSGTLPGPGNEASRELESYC

T3: GIPR R43G (Homo sapiens, UniProt P48546, R43G)
T3 construct: host or cells: HEK293
T3 sequence (P48546 22-466 R43G): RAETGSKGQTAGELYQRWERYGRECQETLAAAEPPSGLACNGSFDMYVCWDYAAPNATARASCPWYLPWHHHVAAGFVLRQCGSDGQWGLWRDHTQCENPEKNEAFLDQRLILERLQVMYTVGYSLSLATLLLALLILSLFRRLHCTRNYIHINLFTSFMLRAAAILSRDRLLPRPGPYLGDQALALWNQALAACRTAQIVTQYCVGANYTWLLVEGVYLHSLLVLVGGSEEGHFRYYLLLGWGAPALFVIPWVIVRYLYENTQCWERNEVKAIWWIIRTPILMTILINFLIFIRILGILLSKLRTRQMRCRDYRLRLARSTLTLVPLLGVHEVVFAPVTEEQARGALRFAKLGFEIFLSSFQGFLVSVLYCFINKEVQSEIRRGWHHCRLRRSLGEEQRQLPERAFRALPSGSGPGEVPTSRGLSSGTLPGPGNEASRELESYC

T4: GIPR R38L (Homo sapiens, UniProt P48546, R38L)
T4 construct: host or cells: HEK293
T4 sequence (P48546 22-466 R38L): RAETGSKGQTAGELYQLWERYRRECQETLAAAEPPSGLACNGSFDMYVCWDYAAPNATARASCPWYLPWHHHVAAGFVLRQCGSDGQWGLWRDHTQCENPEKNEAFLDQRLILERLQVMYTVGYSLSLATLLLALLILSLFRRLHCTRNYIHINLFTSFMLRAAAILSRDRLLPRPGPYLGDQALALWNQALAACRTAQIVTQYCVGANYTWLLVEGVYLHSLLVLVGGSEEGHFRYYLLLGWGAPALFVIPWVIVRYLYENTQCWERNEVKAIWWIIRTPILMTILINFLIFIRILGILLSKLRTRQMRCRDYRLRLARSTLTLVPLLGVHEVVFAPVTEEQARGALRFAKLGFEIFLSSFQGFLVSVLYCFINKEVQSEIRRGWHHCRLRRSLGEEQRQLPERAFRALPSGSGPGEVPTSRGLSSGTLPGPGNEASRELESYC


What was measured:
GIPR Y258Sfs*50 = assay: Homologous competition binding; parameters: species or system human; key: NB: no binding; conditions: n = 4
Description: (§1) Binding experiments were performed simultaneously with the same transiently transfected HEK293 cells used for the cAMP experiments to enable the correlation of receptor expression with signalling between assays. In brief, 1 day before the assay, the transfected cells were seeded in a clear 96-well plate. […] On the assay day, the cells were washed twice with 4 °C binding buffer (50 mM HEPES buffer (pH 7.2), 1 mM CaCl2, 5 mM MgCl2 and 0.5% (wt/vol) bovine serum albumin) and incubated for 15 minutes at 4 °C. […] After incubation, the cells were washed in ice-cold binding buffer and lysed with 200 mmol l^−1 NaOH with 1% sodium dodecyl sulphate for 30 min. The gamma radiation was measured with a 2470 Wizard2 Automatic Gamma Counter.
(§2) To obtain Emax, EC50, Bmax, Kd and IC50 values, we analysed the data with the non-linear regression curve fitting program GraphPad Prism Software 9 (GraphPad).
(§3) The Bmax was calculated according to the following equation[51]: Bmax=B0×IC50/[L] in which B0 represents the total specific binding and [L] is the ligand concentration. The equilibrium dissociation constant (Kd) was obtained with the equation[51]: Kd=IC50−[L]

GIPR C84Pfs*70 = assay: Homologous competition binding; parameters: species or system human; key: NB: no binding; conditions: n = 3
Description: as §1, §2, §3

GIPR W90Lfs*17 [1] = assay: cAMP accumulation; format: cell-based, human; conditions: normalized to WT efficacy at 100 pM; n = 5
Description: HEK293 (CRL-1573, American Type Culture Collection) and β-arrestin 1/2 knockout cells, generated from HEK293A[48], were used for cAMP measurement, homologues competition binding and β-arrestin 2 recruitment. For the internalization assay, endosomal signalling and basal receptor localization experiments, HEK293A (R70507, Thermo Fisher) cells were used. Both cell lines were cultured at 5% CO2 at 37 °C in Roswell Park Memorial Institute GlutaMAX-I supplemented with 10% fetal bovine serum, 180 units ml^−1 penicillin, and 45 g ml^−1 streptomycin. For the cAMP and binding experiments, cells were transfected with the calcium phosphate precipitation method[49]. The polyethyleneimine (PEI) transfection method was used for the β-arrestin 2 recruitment assays[50], endosomal signalling and basal receptor localization assays, while the lipofectamine transfection method was used for the internalization assay.
(§4) cAMP production was measured with the DiscoverX Hithunter cAMP assay according to the manufacturer’s protocol (DiscoverX). […] On the day of the assay, the cells were washed twice with HEPES-buffered saline (HBS) and incubated with HBS and 1 mM 3-isobutyl-1-methylxanthine for 30 min at 37 °C. […] After a 3-h incubation on a shaking table in the dark, the cAMP accumulation was measured based on luminescence with a Perkin Elmer EnVision 2104 Multilabel Microplate Reader. […]

GIPR W90Lfs*17 [2] = assay: Homologous competition binding; parameters: species or system human; conditions: normalized to WT GIPR; SEM 0.5, n = 3
Description: as §1, §2, §3

GIPR E463Q = molecular target: T1, GIPR E463Q; assay: cAMP accumulation; format: cell-based
Description: (§5) HEK293 (CRL-1573, American Type Culture Collection) and β-arrestin 1/2 knockout cells, generated from HEK293A[48], were used for cAMP measurement, homologues competition binding and β-arrestin 2 recruitment. […] Both cell lines were cultured at 5% CO2 at 37 °C in Roswell Park Memorial Institute GlutaMAX-I supplemented with 10% fetal bovine serum, 180 units ml^−1 penicillin, and 45 g ml^−1 streptomycin. For the cAMP and binding experiments, cells were transfected with the calcium phosphate precipitation method[49].
(§6) cAMP production was measured with the DiscoverX Hithunter cAMP assay according to the manufacturer’s protocol (DiscoverX). […] On the day of the assay, the cells were washed twice with HEPES-buffered saline (HBS) and incubated with HBS and 1 mM 3-isobutyl-1-methylxanthine for 30 min at 37 °C. […] After the incubation, the assay medium was removed from the plate and the cells were washed with 30 µl PBS and treated with 40 µl enzyme donor–lysis buffer–chemiluminescent reagents and 10 µl cAMP antibodies for 60 min before 40 µl enzyme acceptor solution added. After a 3-h incubation on a shaking table in the dark, the cAMP accumulation was measured based on luminescence with a Perkin Elmer EnVision 2104 Multilabel Microplate Reader.

GIPR variants (groups) [3] = assay: cAMP accumulation; format: cell-based, human; conditions: for In vitro groups (cAMP): cAMP part of the in vitro group; for percentage_camp: cAMP production compared with WT; for Beta, cAMP: in vitro cAMP production per GIPR variant
GIPR variants (groups) [4] = assay: β-arrestin 2 recruitment (BRET); conditions: for In vitro groups (β-arrestin): arr part of the in vitro group; for Beta, Barr: in vitro β-arrestin recruitment per GIPR variant;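 for all read-outs here: BRET readout of β-arrestin 2 recruitment in transiently transfected HEK293 cells expressing WT GIPR or a GIPR variant plus GPCR kinase 2, Rluc8 donor and citrine acceptor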
GIPR T25R = molecular target: T2, GIPR T25R; assay: cAMP accumulation; format: cell-based
Description: as §5
cAMP production was measured with the DiscoverX Hithunter cAMP assay according to the manufacturer’s protocol (DiscoverX). […] On the day of the assay, the cells were washed twice with HEPES-buffered saline (HBS) and incubated with HBS and 1 mM 3-isobutyl-1-methylxanthine for 30 min at 37 °C. […] After the incubation, the assay medium was removed from the plate and the cells were washed with 30 µl PBS and treated with 40 µl enzyme donor–lysis buffer–chemiluminescent reagents and 10 µl cAMP antibodies for 60 min before 40 µl enzyme acceptor solution added. After a 3-h incubation on a shaking table in the dark, the cAMP accumulation was measured based on luminescence with a Perkin Elmer EnVision 2104 Multilabel Microplate Reader. […]

GIPR R43G = molecular target: T3, GIPR R43G; assay: cAMP accumulation; format: cell-based
Description: as §5, §6

GIPR R38L = molecular target: T4, GIPR R38L; assay: cAMP accumulation; format: cell-based
Description: HEK293 (CRL-1573, American Type Culture Collection) and β-arrestin 1/2 knockout cells, generated from HEK293A[48], were used for cAMP measurement, homologues competition binding and β-arrestin 2 recruitment. […] Both cell lines were cultured at 5% CO2 at 37 °C in Roswell Park Memorial Institute GlutaMAX-I supplemented with 10% fetal bovine serum, 180 units ml^−1 penicillin, and 45 g ml^−1 streptomycin. For the cAMP and binding experiments, cells were transfected with the calcium phosphate precipitation method[49]. The polyethyleneimine (PEI) transfection method was used for the β-arrestin 2 recruitment assays[50], endosomal signalling and basal receptor localization assays, while the lipofectamine transfection method was used for the internalization assay.
as §4

Row | Molecule | Kd (Binding) (GIPR Y258Sfs*50) | Binding (Bmax) (GIPR Y258Sfs*50; normalized to WT GIPR) | Kd (Binding) (GIPR C84Pfs*70) | Binding (Bmax) (GIPR C84Pfs*70; normalized to WT GIPR) | Binding (Bmax) (GIPR W90Lfs*17 [2]) | Efficacy at 100pmol (cAMP) (GIPR E463Q) | Efficacy at 100pmol (cAMP) (GIPR T25R) | Efficacy at 100pmol (cAMP) (GIPR R43G) | Efficacy at 100pmol (cAMP) (GIPR R38L) | cAMP (Efficacy of 100 pM) (GIPR W90Lfs*17 [1]) | In vitro groups (cAMP) (GIPR variants (groups) [3]) | percentage_camp (GIPR variants (groups) [3]) | Beta, cAMP (GIPR variants (groups) [3]) | In vitro groups (β-arrestin) (GIPR variants (groups) [4]) | Beta, Barr (GIPR variants (groups) [4])
1 | T25R (protein) RAERGSKGQTAGELYQRWERYRRECQETLAAAEPPSGLACNGSFDMYVCWDYAAPNATARASCPWYLPWHHHVAAGFVLRQCGSDGQWGLWRDHTQCENPEKNEAFLDQRLILERLQVMYTVGYSLSLATLLLALLILSLFRRLHCTRNYIHINLFTSFMLRAAAILSRDRLLPRPGPYLGDQALALWNQALAACRTAQIVTQYCVGANYTWLLVEGVYLHSLLVLVGGSEEGHFRYYLLLGWGAPALFVIPWVIVRYLYENTQCWERNEVKAIWWIIRTPILMTILINFLIFIRILGILLSKLRTRQMRCRDYRLRLARSTLTLVPLLGVHEVVFAPVTEEQARGALRFAKLGFEIFLSSFQGFLVSVLYCFINKEVQSEIRRGWHHCRLRRSLGEEQRQLPERAFRALPSGSGPGEVPTSRGLSSGTLPGPGNEASRELESYC |  |  |  |  |  |  | 0.6972 |  |  |  | WT-like_camp | >50% cAMP | 0.6972 | LoF_arr | 0.193
2 | R43G (protein) RAETGSKGQTAGELYQRWERYGRECQETLAAAEPPSGLACNGSFDMYVCWDYAAPNATARASCPWYLPWHHHVAAGFVLRQCGSDGQWGLWRDHTQCENPEKNEAFLDQRLILERLQVMYTVGYSLSLATLLLALLILSLFRRLHCTRNYIHINLFTSFMLRAAAILSRDRLLPRPGPYLGDQALALWNQALAACRTAQIVTQYCVGANYTWLLVEGVYLHSLLVLVGGSEEGHFRYYLLLGWGAPALFVIPWVIVRYLYENTQCWERNEVKAIWWIIRTPILMTILINFLIFIRILGILLSKLRTRQMRCRDYRLRLARSTLTLVPLLGVHEVVFAPVTEEQARGALRFAKLGFEIFLSSFQGFLVSVLYCFINKEVQSEIRRGWHHCRLRRSLGEEQRQLPERAFRALPSGSGPGEVPTSRGLSSGTLPGPGNEASRELESYC |  |  |  |  |  |  |  | 1.1583 |  |  | WT-like_camp | >50% cAMP | 1.1583 | LoF_arr | 0.4783
3 | R38L (protein) RAETGSKGQTAGELYQLWERYRRECQETLAAAEPPSGLACNGSFDMYVCWDYAAPNATARASCPWYLPWHHHVAAGFVLRQCGSDGQWGLWRDHTQCENPEKNEAFLDQRLILERLQVMYTVGYSLSLATLLLALLILSLFRRLHCTRNYIHINLFTSFMLRAAAILSRDRLLPRPGPYLGDQALALWNQALAACRTAQIVTQYCVGANYTWLLVEGVYLHSLLVLVGGSEEGHFRYYLLLGWGAPALFVIPWVIVRYLYENTQCWERNEVKAIWWIIRTPILMTILINFLIFIRILGILLSKLRTRQMRCRDYRLRLARSTLTLVPLLGVHEVVFAPVTEEQARGALRFAKLGFEIFLSSFQGFLVSVLYCFINKEVQSEIRRGWHHCRLRRSLGEEQRQLPERAFRALPSGSGPGEVPTSRGLSSGTLPGPGNEASRELESYC |  |  |  |  |  |  |  |  | 0.843 |  | WT-like_camp | >50% cAMP | 0.843 | WT-like_arr | 0.8228

Continued, in another order:

Row | Kd (Binding) (GIPR Y258Sfs*50) | Binding (Bmax) (GIPR Y258Sfs*50; normalized to WT GIPR) | Kd (Binding) (GIPR C84Pfs*70) | Binding (Bmax) (GIPR C84Pfs*70; normalized to WT GIPR) | Binding (Bmax) (GIPR W90Lfs*17 [2]) | Efficacy at 100pmol (cAMP) (GIPR E463Q) | Efficacy at 100pmol (cAMP) (GIPR T25R) | Efficacy at 100pmol (cAMP) (GIPR R43G) | Efficacy at 100pmol (cAMP) (GIPR R38L) | Molecule | cAMP (Efficacy of 100 pM) (GIPR W90Lfs*17 [1]) | In vitro groups (cAMP) (GIPR variants (groups) [3]) | percentage_camp (GIPR variants (groups) [3]) | Beta, cAMP (GIPR variants (groups) [3]) | In vitro groups (β-arrestin) (GIPR variants (groups) [4]) | Beta, Barr (GIPR variants (groups) [4])
4 | NB | NB | NB | NB | 1.36 |  |  |  |  | GIP(1-42) | 0.531 |  |  |  |  | 
5 |  |  |  |  |  | 0.9097 |  |  |  | E463Q (protein) RAETGSKGQTAGELYQRWERYRRECQETLAAAEPPSGLACNGSFDMYVCWDYAAPNATARASCPWYLPWHHHVAAGFVLRQCGSDGQWGLWRDHTQCENPEKNEAFLDQRLILERLQVMYTVGYSLSLATLLLALLILSLFRRLHCTRNYIHINLFTSFMLRAAAILSRDRLLPRPGPYLGDQALALWNQALAACRTAQIVTQYCVGANYTWLLVEGVYLHSLLVLVGGSEEGHFRYYLLLGWGAPALFVIPWVIVRYLYENTQCWERNEVKAIWWIIRTPILMTILINFLIFIRILGILLSKLRTRQMRCRDYRLRLARSTLTLVPLLGVHEVVFAPVTEEQARGALRFAKLGFEIFLSSFQGFLVSVLYCFINKEVQSEIRRGWHHCRLRRSLGEEQRQLPERAFRALPSGSGPGEVPTSRGLSSGTLPGPGNEASRELQSYC |  | WT-like_camp | >50% cAMP | 0.9097 | WT-like_arr | 0.4933
